From patent US20120237528A1 (Janssen / Centocor, published 2012)
Positions count from the first letter of the chain named.

B1: M1650 (antibody, V domains shown)
VH: EVQLVQSGAEVKKPGESLRISCKGSGYTFAPYWIEWVRQMPGKGLEWMGDILPGTGFTTYSPSFQGHVTISADKSISTAYLQWSSLKASDTAMYYCARSGYYGNSGFAYWGQGTLVTVSS
VL: DIVMTQTPLSLPVTPGEPASISCKSSQSLLTSYNQRNYLTWYLQKPGQSPQLLIYWASTRESGVPDRFSGSGSGTDFTLKISRVEAEDVGVYYCQNDLTYPLTFGQGTKLEIK
notes: complete MAb; FR4 is its own entry; also called H171/L369
B2: M1601 (antibody, V domains shown)
VH: B1 VH with A30G, F57Y, T59V
VL: B1 VL with T31S, Y33G, R36K, L98Y
notes: complete MAb; FR4 is its own entry; also called H105/L3
B3: M1640 (antibody, V domains shown)
VH: B1 VH with A30I, P31T, T55S, F57S, T59N
VL: B1 VL with T31P, Y33W, R36S, L98F
notes: complete MAb; FR4 is its own entry; also called H22/L327
B4: M1644 (antibody, V domains shown)
VH: B1 VH with A30I, P31T, T55S, F57S, T59N
VL: B1 VL with T31F, S32R, Y33P, N34T, R36K, L98D, T99S
notes: complete MAb; FR4 is its own entry; also called H22/L225
B5: M1643 (antibody, V domains shown)
VH: B1 VH with A30I, P31T, T55S, F57S, T59N
VL: B1 VL with T31Y, S32V, N34G, R36K, L98F, T99S, Y100W
notes: complete MAb; FR4 is its own entry; also called H22/L162
B6: M1645 (antibody, V domains shown)
VH: B1 VH with A30I, P31T, T55S, F57S, T59N
VL: B1 VL with T31Y, S32T, Y33S, R36K, L98D, T99Y, Y100W
notes: complete MAb; FR4 is its own entry; also called H22/L283
B7: M1648 (antibody, V domains shown)
VH: B1 VH
VL: B1 VL with T31P, Y33W, R36S, L98F
notes: complete MAb; FR4 is its own entry; also called H171/L327
B8: M1641 (antibody, V domains shown)
VH: B1 VH with A30I, P31T, T55S, F57S, T59N
VL: B1 VL with T31F, Y33A, E61D, L98D
notes: complete MAb; FR4 is its own entry; also called H22/L335
B9: M1599 (antibody, V domains shown)
VH: B1 VH with A30G, F57Y, T59L
VL: B1 VL with T31S, Y33G, R36K, L98Y
notes: complete MAb; FR4 is its own entry; also called H130/L3
B10: M1604 (antibody, V domains shown)
VH: B1 VH with F57Y, T59W
VL: B1 VL with T31S, Y33G, R36K, L98Y
notes: complete MAb; FR4 is its own entry; also called H138/L3
B11: M1642 (antibody, V domains shown)
VH: B1 VH with A30I, P31T, T55S, F57S, T59N
VL: B1 VL
notes: complete MAb; FR4 is its own entry; also called H22/L369
B12: M1602 (antibody, V domains shown)
VH: B1 VH with A30D, P31A, Y32H, T55S, T59D
VL: B1 VL with T31S, Y33G, R36K, L98Y
notes: complete MAb; FR4 is its own entry; also called H106/L3
B13: M1613 (antibody, V domains shown)
VH: B1 VH with A30S, P31S, Y32H, T55S, T59H, Q82K
VL: B1 VL with T31S, Y33G, R36K, L98Y
notes: complete MAb; FR4 is its own entry; also called H136/L3
B14: M1638 (antibody, V domains shown)
VH: B1 VH with A30I, P31T, T55S, F57S, T59N
VL: B1 VL with T31W, S32F, Y33V, R36K, W56H, L98D, T99S
notes: complete MAb; FR4 is its own entry; also called H22/L138
B15: M1647 (antibody, V domains shown)
VH: B1 VH
VL: B1 VL with T31Y, Y33G, E61S, L98D, L102M
notes: complete MAb; FR4 is its own entry; also called H171/L320
B16: M1606 (antibody, V domains shown)
VH: B1 VH with A30I, Y32H, T55S, F57W, T59N
VL: B1 VL with T31S, Y33G, R36K, L98Y
notes: complete MAb; FR4 is its own entry; also called H181/L3
B17: M1610 (antibody, V domains shown)
VH: B1 VH with L52I, F57Y
VL: B1 VL with T31S, Y33G, R36K, L98Y
notes: complete MAb; FR4 is its own entry; also called H115/L3
B18: M1605 (antibody, V domains shown)
VH: B1 VH with A30G, P31T, F57H
VL: B1 VL with T31S, Y33G, R36K, L98Y
notes: complete MAb; FR4 is its own entry; also called H168/L3
B19: M1639 (antibody, V domains shown)
VH: B1 VH with A30I, P31T, T55S, F57S, T59N
VL: B1 VL with T31Y, Y33G, E61S, L98D, L102M
notes: complete MAb; FR4 is its own entry; also called H22/L320
B20: M23 (antibody, V domains shown)
VH: QVQLVQSGAEVKKPGASVKVSCKASGYTFITYWIEWVRQAPGQRLEWMGDILPGSGSTNYNENFKGRVTITRDTSASTAYMELSSLRSEDTAVYYCARSGYYGNSGFAYWGQGTLVTVSS
VL: DIVMTQSPDSLAVSLGERATINCKSSQSLLSSGNQKNYLTWYQQKPGQPPKLLIYWASTRESGVPDRFSGSGSGTDFTLTISSLQAEDVAVYYCQNDYTYPLTFGQGTKLEIK
notes: complete MAb; FR4 is its own entry; also called H17/L2
B21: M65 (antibody, V domains shown)
VH: B20 VH with A16S, R44G, N61A, E62Q, N63K, K65Q, R72A, T74E, A76T
VL: B20 VL
notes: complete MAb; FR4 is its own entry; also called H23/L2
B22: M44 (antibody, V domains shown)
VH: B20 VH with R44G, I70M, R72T, A76T, S84R, E89D
VL: B20 VL
notes: complete MAb; FR4 is its own entry; also called H20/L2
B23: M63 (antibody, V domains shown)
VH: B1 VH with A30I, P31T, T55S, F57S, T59N
VL: DIVMTQTPLSSPVTLGQPASISCKSSQSLLSSGNQKNYLTWLQQRPGQPPRLLIYWASTRESGVPDRFSGSGAGTDFTLKISRVEAEDVGVYYCQNDYTYPLTFGQGTKLEIK
notes: complete MAb; FR4 is its own entry; also called H22/L7
B24: M38 (antibody, V domains shown)
VH: B20 VH with A16S, R44G, R72A, T74E, A76T
VL: B1 VL with T31S, Y33G, R36K, L98Y
notes: complete MAb; FR4 is its own entry; also called H19/L3
B25: M28 (antibody, V domains shown)
VH: B20 VH
VL: B23 VL
notes: complete MAb; FR4 is its own entry; also called H17/L7
B26: M70 (antibody, V domains shown)
VH: B20 VH with A16S, R44G, N61A, E62Q, N63K, K65Q, R72A, T74E, A76T
VL: B23 VL
notes: complete MAb; FR4 is its own entry; also called H23/L7
B27: M21 (antibody, V domains shown)
VH: B20 VH with R44G, I70M, A76T, A79V
VL: B23 VL
notes: complete MAb; FR4 is its own entry; also called H16/L7
B28: M49 (antibody, V domains shown)
VH: B20 VH with R44G, I70M, R72T, A76T, S84R, E89D
VL: B23 VL
notes: complete MAb; FR4 is its own entry; also called H20/L7
B29: M67 (antibody, V domains shown)
VH: B20 VH with A16S, R44G, N61A, E62Q, N63K, K65Q, R72A, T74E, A76T
VL: B1 VL with T7S, T31S, Y33G, R36K, L98Y
notes: complete MAb; FR4 is its own entry; also called H23/L4
B30: M24 (antibody, V domains shown)
VH: B20 VH
VL: B1 VL with T31S, Y33G, R36K, L98Y
notes: complete MAb; FR4 is its own entry; also called H17/L3
B31: M18 (antibody, V domains shown)
VH: B20 VH with R44G, I70M, A76T, A79V
VL: B1 VL with T7S, T31S, Y33G, R36K, L98Y
notes: complete MAb; FR4 is its own entry; also called H16/L4
B32: M47 (antibody, V domains shown)
VH: B20 VH with R44G, I70M, R72T, A76T, S84R, E89D
VL: B1 VL with P12S, E17Q, T31S, Y33G, R36K, S49P, L98Y
notes: complete MAb; FR4 is its own entry; also called H20/L5
B33: M40 (antibody, V domains shown)
VH: B20 VH with A16S, R44G, R72A, T74E, A76T
VL: B1 VL with P12S, E17Q, T31S, Y33G, R36K, S49P, L98Y
notes: complete MAb; FR4 is its own entry; also called H19/L5
B34: M25 (antibody, V domains shown)
VH: B20 VH
VL: B1 VL with T7S, T31S, Y33G, R36K, L98Y
notes: complete MAb; FR4 is its own entry; also called H17/L4
B35: M39 (antibody, V domains shown)
VH: B20 VH with A16S, R44G, R72A, T74E, A76T
VL: B1 VL with T7S, T31S, Y33G, R36K, L98Y
notes: complete MAb; FR4 is its own entry; also called H19/L4
B36: M17 (antibody, V domains shown)
VH: B20 VH with R44G, I70M, A76T, A79V
VL: B1 VL with T31S, Y33G, R36K, L98Y
notes: complete MAb; FR4 is its own entry; also called H16/L3
B37: M66 (antibody, V domains shown)
VH: B20 VH with A16S, R44G, N61A, E62Q, N63K, K65Q, R72A, T74E, A76T
VL: B1 VL with T31S, Y33G, R36K, L98Y
notes: complete MAb; FR4 is its own entry; also called H23/L3

molecular target: Innovin, lyophilized recombinant human tissue factor combined with phospholipids (human, UniProt P13726 33-295, limits assumed); experiment: cell-based or functional assay

T½ Max (seconds), coagulation of human plasma [s]	Binder
150	B1
180	B2
168	B3
150	B4
148	B5
154	B6
161	B7
162	B8
151	B9
165	B10
166	B11
163	B12
165	B13
163	B14
160	B15
157	B16
164	B17
160	B18
167	B19

molecular target: T1, recombinant extracellular domain (ECD) of human TF, amino acid 1-219 of the mature chain, C-terminal His6-tag (human, UniProt P13726 33-251); experiment: direct ELISA, 50 ng/ml
T1 construct: expressed in a mammalian system; used for ELISA and Biacore; biotinylated by NHS-ester for the Fab ELISA; also called His6-TF-ECD1-219; HumanTF1-219

binding result	Binder
binds	B20
binds	B21
binds	B22
binds	B23
binds	B24
binds	B25
binds	B26
binds	B27
binds	B28
binds	B29
binds	B30
binds	B31
binds	B32
binds	B33
binds	B34
binds	B35
binds	B36
binds	B37

molecular target: T1, recombinant extracellular domain (ECD) …; experiment: Biacore

Kd [nM]	koff [s⁻¹]	kon [M⁻¹ s⁻¹]	Binder
0.19	–	–	B1
0.33	4.6e-05	137000	B2
0.76	–	–	B3
0.12	–	–	B4
0.18	–	–	B5
0.08	–	–	B6
0.73	–	–	B7
0.12	–	–	B8
0.39	5.3e-05	138000	B9
0.14	2.2e-05	152000	B10
0.95	–	–	B11
0.62	8.2e-05	132000	B12
0.92	7e-05	75700	B13
0.2	–	–	B14
0.1	–	–	B15
0.18	2.9e-05	166000	B16
0.54	0.0001	184000	B17
0.64	8.6e-05	135000	B18
0.08	–	–	B19
